Results from publication PMC2909962, “Integrin αvβ5 is a primary receptor for adenovirus in CAR-negative cells” (Virology Journal, 2010).

Molecular target: Adenovirus Serotype 5, replication incompetent, E1A deleted, expressing GFP (Ad5-GFP), whole virus (human adenovirus serotype 5, UniProt P12538 1-571); P11818 1-581; P04133 1-952, Whole virion. Only the three major capsid proteins named in the paper are given, as wild type: penton base (5 at each of 12 vertices), fiber (trimer at each vertex), hexon (240 trimers; the paper prin)
Experiment: ELISA; cell-based: MDA-MB-435 cells in 96-well poly-D-lysine plates, incubated with whole Ad5 at varying concentrations for 18 hrs at 4°C, washed, fixed; bound virus detected with polyclonal rabbit anti-Ad5 and an ELISA amplification system; fit to the Langmuir binding isotherm
Details: one partner purified

B1: Integrin αvβ5 (receptor)
chain 1: FNLDVDSPAEYSGPEGSYFGFAVDFFVPSASSRMFLLVGAPKANTTQPGIVEGGQVLKCDWSSTRRCQPIEFDATGNRDYAKDDPLEFKSHQWFGASVRSKQDKILACAPLYHWRTEMKQEREPVGTCFLQDGTKTVEYAPCRSQDIDADGQGFCQGGFSIDFTKADRVLLGGPGSFYWQGQLISDQVAEIVSKYDPNVYSIKYNNQLATRTAQAIFDDSYLGYSVAVGDFNGDGIDDFVSGVPRAARTLGMVYIYDGKNMSSLYNFTGEQMAAYFGFSVAATDINGDDYADVFIGAPLFMDRGSDGKLQEVGQVSVSLQRASGDFQTTKLNGFEVFARFGSAIAPLGDLDQDGFNDIAIAAPYGGEDKKGIVYIFNGRSTGLNAVPSQILEGQWAARSMPPSFGYSMKGATDIDKNGYPDLIVGAFGVDRAILYRARPVITVNAGLEVYPSILNQDNKTCSLPGTALKVSCFNVRFCLKADGKGVLPRKLNFQVELLLDKLKQKGAIRRALFLYSRSPSHSKNMTISRGGLMQCEELIAYLRDESEFRDKLTPITIFMEYRLDYRTAADTTGLQPILNQFTPANISRQAHILLDCGEDNVCKPKLEVSVDSDQKKIYIGDDNPLTLIVKAQNQGEGAYEAELIVSIPLQADFIGVVRNNEALARLSCAFKTENQTRQVVCDLGNPMKAGTQLLAGLRFSVHQQSEMDTSVKFDLQIQSSNLFDKVSPVVSHKVDLAVLAAVEIRGVSSPDHVFLPIPNWEHKENPETEEDVGPVVQHIYELRNNGPSSFSKAMLHLQWPYKYNNNTLLYILHYDIDGPMNCTSDMEINPLRIKISSLQTTEKNDTVAGQGERDHLITKRDLALSEGDIHTLGCGVAQCLKIVCQVGRLDRGKSAILYVKSLLWTETFMNKENQNHSYSLKSSASFNVIEFPYKNLPIEDITNSTLVTTNVTWGIQPAPMPVPVWVIILAVLAGLLLLAVLVFVMYRMGFFKRVRPPQEEQEREQLQPHENGEGNSET
chain 2: GLNICTSGSATSCEECLLIHPKCAWCSKEDFGSPRSITSRCDLRANLVKNGCGGEIESPASSFHVLRSLPLSSKGSGSAGWDVIQMTPQEIAVNLRPGDKTTFQLQVRQVEDYPVDLYYLMDLSLSMKDDLDNIRSLGTKLAEEMRKLTSNFRLGFGSFVDKDISPFSYTAPRYQTNPCIGYKLFPNCVPSFGFRHLLPLTDRVDSFNEEVRKQRVSRNRDAPEGGFDAVLQAAVCKEKIGWRKDALHLLVFTTDDVPHIALDGKLGGLVQPHDGQCHLNEANEYTASNQMDYPSLALLGEKLAENNINLIFAVTKNHYMLYKNFTALIPGTTVEILDGDSKNIIQLIINAYNSIRSKVELSVWDQPEDLNLFFTATCQDGVSYPGQRKCEGLKIGDTASFEVSLEARSCPSRHTEHVFALRPVGFRDSLEVGVTYNCTCGCSVGLEPNSARCNGSGTYVCGLCECSPGYLGTRCECQDGENQSVYQNLCREAEGKPLCSGRGDCSCNQCSCFESEFGKIYGPFCECDNFSCARNKGVLCSGHGECHCGECKCHAGYIGDNCNCSTDISTCRGRDGQICSERGHCLCGQCQCTEPGAFGEMCEKCPTCPDACSTKRDCVECLLLHSGKPDNQTCHSLCRDEVITWVDTIVKDDQEAVLCFYKTAKDCVMMFTYVELPSGKSNLTVLREPECGNTPNAMTILLAVVGSILLVGLALLAIWKLLVTIHDRREFAKFQSERSRARYEMASNPLYRKPISTHTVDFTFNKFNKSYNGTVD
notes: integrin alpha-V subunit, human, endogenous on the surface of MDA-MB-435 and MCF7 cells; integrin beta-5 subunit, human, endogenous on the surface of MDA-MB-435 and MCF7 cells; no isolated integrin was used; source: endogenous, on MDA-MB-435 and MCF7 cells
- Kd: 140 pM
